Experimental findings from patent US20210253718A1, “FRIZZLED5 PROTEIN-BINDING AGENTS” (Modmab Therapeutics Corporation, priority 2016, published 2021) are described below.

For assay [1], the target named is T1, FZD9 CRD (Homo sapiens, UniProt O00144).
T1 construct: G35-A161; GPI anchor signal (C); expressed in transfected cells; host or cells: CHO cells, lentiviral pLenti-puro
T1 sequence (O00144 35-161): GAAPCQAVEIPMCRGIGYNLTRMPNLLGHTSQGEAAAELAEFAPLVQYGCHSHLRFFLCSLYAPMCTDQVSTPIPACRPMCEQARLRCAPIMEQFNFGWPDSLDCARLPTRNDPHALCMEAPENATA
In words: Immunofluorescence of anti-FZD5 Fab binding to CHO cells overexpressing Frizzled CRD. Also noted: key: −: no binding; +: very weak binder; ++: weak binder; +++: good binder; ++++: very good binder. Here is the method: (§1) Plasmids: pLCKO lentiviral vector used for knockout (TKO) library construction and expression of individual gRNAs was constructed as described previously (Hart et al., 2015). Briefly, single guide RNA (sgRNA) scaffold was amplified from px330 (Addgene 42230) and cloned into pLKO.TRC005 lentiviral vector (Broad Institute, Cambridge, Mass.) using AgeI/EcoRI restriction sites. BfuAI sites were added at the 5′ end of the sgRNA scaffold for cloning the TKO library or individual gRNA target sequences. Lenti Cas9-2A-BsdR vector used to generate Cas9 stable expression cell lines was constructed as described previously (Hart et al., 2015). Briefly, lentiCRISPR pXPR_001 (Addgene 49535) was modified through removal of the sgRNA scaffold region through NdeI/EcoRI digest and blunt ends generation using Large Klenow Fragment (NEB). 2A-puro was replaced with 2A-BsdR by PCR using the NheI/MluI sites. Each of the 10 human Frizzled cysteine rich domains (CRDs) were cloned into the lentiviral expression plasmid pLenti-puro in the following cassette: FZD_CRD-MYC-GPI.
(§2) To confirm that the FZD5-WNT7B circuit is not driven simply by expression and rule out the possibility of a disconnect between RNA and protein levels for the Wnt receptors in HPAF-II cells, a panel of recombinant Fabs were generated, alternatively referred to herein as ‘Frizzled profiler’, that can detect and discriminate all but one of the ten Frizzled receptors. […] To characterize the binding specificity of these Fabs on cells, a panel of 10 CHO cell lines was generated, each expressing the CRD domain of a different myc-tagged Frizzled family member anchored at the plasma membrane through a GPI anchor (CHO-myc-FZDGPI). Despite the high sequence identity between Frizzled family members (FIG. 7A, FIG. 7B), selective Fabs were identified for FZD4, FZD5, FZD6 and FZD10 as assessed by immunofluorescence and flow cytometry (FIG. 7D and FIG. 8). […] The FZD8 CRD is most homologous to that of FZD5 (FIG. 7B). These Fabs can be used to discriminate expression of FZD1, FZD2, FZD4, FZD5, FZD6, FZD7, FZD8, FZD9 and FZD10 (FIG. 7D and FIG. 8). The ‘Frizzled profiler’ therefore consists of 10 different Fabs that can be used to discriminate expression of 9 different Frizzled family members. The Frizzled profiler was then used to confirm that HPAF-II cells express FZD1, FZD5, FZD6 and possibly FZD8 (FIG. 7E).
(§3) The binding of anti-FZD5 Fabs to cell surface-expressed Frizzled protein was further determined for each member of the Frizzled family via flow cytometry and immunofluorescence analysis of a panel of 10 CHO cell lines, each ectopically over-expressing the extracellular cysteine-rich domain (CRD) of a different Frizzled protein family member.

For assay [2], the target named is T2, FZD3 CRD (Homo sapiens, UniProt Q9NPG1).
T2 construct: CRD of FZD1, FZD2, FZD3, FZD4, FZD5, FZD6, FZD7, FZD8, FZD9 or FZD10; GPI anchor signal (C); expressed in transfected cells; host or cells: CHO cells, lentiviral pLenti-puro
T2 sequence (Q9NPG1 23-136 limits assumed): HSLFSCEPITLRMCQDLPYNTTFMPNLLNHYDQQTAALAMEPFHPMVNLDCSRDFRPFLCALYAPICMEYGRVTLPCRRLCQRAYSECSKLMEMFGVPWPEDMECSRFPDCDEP
The description is as above. Also noted: key: −: no binding; +: very weak binder; ++: weak binder; +++: good binder; ++++: very good binder. Here is the method: as §1, §2, §3

For assay [3], the target named is T3, FZD10 CRD (Homo sapiens, UniProt Q9ULW2).
T3 construct: 30-156; GPI anchor signal (C); expressed in transfected cells; host or cells: CHO cells, lentiviral pLenti-puro
T3 sequence (Q9ULW2 30-156): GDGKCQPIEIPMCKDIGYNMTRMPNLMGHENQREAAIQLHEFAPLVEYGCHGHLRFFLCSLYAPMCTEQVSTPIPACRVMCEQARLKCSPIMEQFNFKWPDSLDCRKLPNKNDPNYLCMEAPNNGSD
The description is as above. Details: key: −: no binding; +: very weak binder; ++: weak binder; +++: good binder; ++++: very good binder. Here is the method:
as §1, §2, §3

Assay [4] has as its target T4, FZD1 CRD (Homo sapiens, UniProt Q9UP38).
T4 construct: D112-P238; GPI anchor signal (C); expressed in transfected cells; host or cells: CHO cells, lentiviral pLenti-puro
Nature of the assay: Flow cytometry of anti-FZD5 Fab binding to CHO cells overexpressing Frizzled CRD. How it is done: as §1
(§4) Flow cytometry: Primary staining of cells was performed by treatment with 200 nM Frizzled profiler Fab. Alexa Fluor 488 AffiniPure F(ab′)2 was used as the secondary antibody (Jackson ImmunoResearch #109-546-097). c-Myc (9E10) IgG1 (primary antibody, Santa Cruz, lot #D0306) and Alexa Fluor 488 IgG (secondary antibody, Life technologies, lot #1458649) were used as controls. Dead cells were excluded by staining with Fixable Viability Dye eFluor 660 (eBioscience, catalogue number 65-0864). All reagents were used as per manufacturer's instructions. Flow cytometry was performed on a BD FACSCanto II flow cytometer (BD Biosciences), and data were analyzed with FlowJo software (FlowJo, LLC).
as §2, §3
Background: A flow cytometer gives signals particle by particle.

Assay [5] deals with T5, FZD7 CRD (Homo sapiens, UniProt O75084).
T5 construct: D45-S169; GPI anchor signal (C); expressed in transfected cells; host or cells: CHO cells, lentiviral pLenti-puro
The description is as above. How it is done: as §1, §4, §2, §3

The target in assay [6] is T6, FZD8 CRD (Homo sapiens, UniProt Q9H461).
T6 construct: K31-D155; GPI anchor signal (C); expressed in transfected cells; host or cells: CHO cells, lentiviral pLenti-puro
T6 sequence (Q9H461 31-155): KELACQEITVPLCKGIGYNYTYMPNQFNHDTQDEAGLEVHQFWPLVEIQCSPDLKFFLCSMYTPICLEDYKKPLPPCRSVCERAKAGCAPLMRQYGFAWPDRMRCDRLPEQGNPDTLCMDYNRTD
Described as above. How it is done: as §1, §4, §2, §3

For assay [7], the target named is T2, FZD3 CRD. The assay is described as above. Here is the method:
as §1, §4, §2, §3

Assay [8] has as its target T7, FZD2 CRD (Homo sapiens, UniProt Q14332).
T7 construct: D35-P161; GPI anchor signal (C); expressed in transfected cells; host or cells: CHO cells, lentiviral pLenti-puro
The description is as above. Here is the method: as §1, §4, §2, §3

With “Fab-2931: anti-FZD5 Fab with antibody variable region Fv-2931; CDR SEQ ID NOs: 35, 36, 70, 102, 146, 176 (CDR 1 QSVSSA; CDR 2 SAS; CDR 3 QQSSYSLIT; CDR 4 GFNLSYSS; CDR 5 ISPYSGST; CDR 6 ARGSYWYVGGGWWVSGHGGMDY)”, in assay [1], the “Immunofluorescence binding, Frizzled CRD overexpressed on CHO cells: FZD9” value is “−”. Moreover, the “Immunofluorescence binding, Frizzled CRD overexpressed on CHO cells: FZD3” value in assay [2] is listed as “−”. Also, in assay [3], the “Immunofluorescence binding, Frizzled CRD overexpressed on CHO cells: FZD10” value is “−”. Moreover, in assay [4], the “Median fluorescence, Frizzled CRD overexpressed on CHO cells: FZD1” value was determined as 10.27. Besides, the “Median fluorescence, Frizzled CRD overexpressed on CHO cells: FZD7” value in assay [5] is 9.14. Besides, the “Median fluorescence, Frizzled CRD overexpressed on CHO cells: FZD8” value in assay [6] is reported as 7.43. In assay [7], the “Median fluorescence, Frizzled CRD overexpressed on CHO cells: FZD3” value worked out at 3.49. Besides, the “Median fluorescence, Frizzled CRD overexpressed on CHO cells: FZD2” value in assay [8] is on record as 4.7.
